In the supplement of paper PMC12667976:

B1: library; numbered along this chain (parent)
chain: MATDAALRRLLRLHRTEIAVAVDSAFPLLHALADHDVVPEDKFQETLHLKEKEGCPQAFHALLSWLLTQDSTAILDFWRVLFKDYNLERYGRLQPILDSFPKDVDLSQPRKGRKPPAVPKALVPPPRLPTKRKASEEARAAAPAALTPRGTASPGSQLKAKPPKKPESSAEQQRLPLGNGIQTMSASVQRAVAMSSGDVPGARGAVEGILIQQVFESGGSKKCIQVGGEFYTPSKFEDSGSGKNKARSSSGPKPLVRAKGAQGAAPGGGEARLGQQGSVPAPLALPSDPQLHQKNEDECAVCRDGGELICCDGCPRAFHLACLSPPLREIPSGTWRCSSCLQATVQEVQPRAEEPRPQEPPVETPLPPGLRSAGEEVRGPPGEPLAGMDTTLVYKHLPAPPSAAPLPGLDSSALHPLLCVGPEGQQNLAPGARCGVCGDGTDVLRCTHCAAAFHWRCHFPAGTSRPGTGLRCRSCSGDVTPAPVEGVLAPSPARLAPGPAKDDTASHEPALHRDDLESLLSEHTFDGILQWAIQSMARPAAPFPS

Variants of: B1
Test: AIRE transcriptional activation functional score (insulin promoter-GFP; nonsense median 0, synonymous median 1) (normalised score); higher = higher AIRE activity (more reporter activation)
Settings: with insulin promoter-GFP reporter in HEK293
In short: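 Functional scores come from comparing select with non-select enrichment of each variant and subtracting wild type. Codon-optimized AIRE NNN-codon libraries across three regions were integrated via Bxb1 recombinase into HEK293 landing-pad cells with an insulin core promoter-GFP reporter, and integrants sorted at day 7 were expanded 7 days before top 10% GFP and unselected populations were tile-sequenced. Variants needed 10 counts per million in non-select, and values were rescaled to nonsense median 0 and synonymous median 1 before averaging over biological replicates.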

AIRE transcriptional activation functional score, by site and new letter:
R433: V 0.599; W 1.4; Y 0.349
C434: A 0.14; D 0.5; E 0.289; F 0.223; G 0.163; H 0.179; I 0.0869; K -0.158; L 0.207; M 0.34; N 0.201; P 0.202; Q 0.225; R 0.0925; S 0.275; T 0.243; V 0.211; W -0.0557; Y 0.0941
G435: A 1.16; C 1.18; D -0.0125; E 0.463; F 0.364; H 0.284; I 0.437; K 1.2; L 0.516; M 0.379; N 0.945; P 1.14; Q 0.663; R 1.03; S 0.74; T 0.0827; V 0.849; W 0.957; Y 0.365
V436: A 0.0856; C 1.33; D 0.874; E 0.492; F 1.11; G 0.916; H 0.883; I 1.35; K 1.21; L 0.995; M 0.555; N 1.19; P 0.39; Q 0.854; R 0.525; S 0.217; T 0.824; Y 1.28
C437: A 0.0947; D 0.609; E 0.473; F 0.199; G 0.0855; H 0.0985; I 0.106; K 0.35; L 0.255; M -0.171; N 0.452; P 0.172; Q 0.296; R 0.0167; S 0.389; T 0.164; V 0.168; W 0.0698; Y 0.215
G438: A 1.21; C 1.25; D 0.196; E 0.922; F 0.712; I 1.08; K 1.12; L 0.0897; M 1.31; N 0.938; P 0.303; Q 1.23; R 1.1; S 1.24; T 0.646; V 1.1; W 1.26
D439: A 1.1; C 1.16; E 0.881; F -0.443; G 0.919; H 1.32; I 0.279; K 0.809; L 0.586; N 1.07; P 0.0529; Q 0.923; R 0.536; S 0.93; T 1.03; V 0.869; W 1.2; Y 1.35
G440: A 0.417; D 0.799; E 0.195; F 1.04; K 0.598; L 0.997; P 1.25; Q 1.15; R 0.76; S 1.16; V 1.3; W 0.996
T441: A 1.03; C 1.25; D 0.0827; E 0.676; F 0.823; G 0.478; H 1.1; I 1.08; K 1.31; L 1.13; M 1.24; N 0.751; P 1.13; Q 1.35; R 0.696; S 1.02; V 0.851; W 1.57; Y 1.12
D442: A 0.791; C 0.845; E 0.869; F -0.04; G 1.08; H 0.38; I -0.0637; K 0.322; L 0.0551; M 0.124; N 0.93; P 0.0269; Q 1.03; R 0.257; S 0.83; T 0.24; V -0.000931; W -0.0188; Y 0.265
V443: A 0.969; C 1.15; D 0.0282; E 1.12; F 0.581; G 1.13; H 1.16; I 0.968; K 0.0676; L 0.596; M 1.29; N 0.847; P 1.15; Q 0.368; R 0.0498; S 0.937; T 0.921; W 0.235; Y 0.882
L444: A 0.718; C 1.96; D 1.55; E 0.903; F 0.489; G 1.27; H 1.18; I 1.08; K 0.847; M -0.874; N 0.882; P 0.0281; Q 0.642; R 1.17; S 1.09; T 0.477; V 1.13; W 0.452; Y 0.814
R445: A 0.543; C 0.188; D 0.596; E 0.42; F 0.192; G 0.978; H 0.423; I 0.985; K 1.17; L 0.998; N 1.25; P 0.738; Q 0.898; S 0.952; T 0.578; V 0.784; W 0.804
C446: A 0.113; D -0.0826; E -1.3; F 0.403; G 0.144; I 0.167; K 0.294; L 0.0671; M -0.496; P 0.448; Q -0.0282; R 0.0344; S -0.132; T -0.0482; V -0.492; W -0.0678; Y -0.213
T447: A 1.02; C 0.201; D 0.924; E 0.425; F 0.707; G 1.03; I 1.4; L 1.2; M 1.49; N 1.26; Q 0.797; R 0.679; S 1.29; V 1.18; W 1.32; Y 0.458
H448: A 0.696; D 0.718; F 0.906; I 0.59; L 1.07; N 1.18; P 0.0826; Q 1.05; R 0.695; S 0.0363; T 1.54; V 0.416; W 0.403; Y 1.26
C449: A -0.278; D 0.418; E 0.0473; F 0.317; G 0.257; H 0.515; I -0.224; L 0.195; M -0.542; N -0.014; P 0.244; Q 0.388; R 0.252; S -0.103; T 0.263; V 0.0568; W 0.0652; Y 0.106
A450: C 0.795; D 1.48; E 1.24; F 1.24; G 0.382; H 1.43; I 1.2; K -0.531; L 1.22; N 1.35; P 0.565; Q 1.13; R 1.4; S 0.883; T 0.632; V 1.19; Y 0.311
A451: D 0.631; E 1.02; F -0.0649; G 0.686; H 0.282; I 0.663; K 0.893; L 0.76; N 0.582; P 0.142; Q -0.927; R 1.19; S 0.496; T 0.528; V 0.438; W 0.516; Y 0.593
A452: C 1.13; D 0.712; E 1.54; F 0.934; G 0.775; H 0.816; K 0.517; L 0.666; M 0.473; P 0.719; R 0.86; S 1.04; T 0.973; V 0.915
F453: A 0.274; C 0.283; D 0.307
